Measurements taken from patent US20240218063A1 (HARPOON THERAPEUTICS, published 2024).

T1: human DLL3 on DLL3 expressing cancer cell lines (human, UniProt Q9NYJ7 27-618)
T1 sequence: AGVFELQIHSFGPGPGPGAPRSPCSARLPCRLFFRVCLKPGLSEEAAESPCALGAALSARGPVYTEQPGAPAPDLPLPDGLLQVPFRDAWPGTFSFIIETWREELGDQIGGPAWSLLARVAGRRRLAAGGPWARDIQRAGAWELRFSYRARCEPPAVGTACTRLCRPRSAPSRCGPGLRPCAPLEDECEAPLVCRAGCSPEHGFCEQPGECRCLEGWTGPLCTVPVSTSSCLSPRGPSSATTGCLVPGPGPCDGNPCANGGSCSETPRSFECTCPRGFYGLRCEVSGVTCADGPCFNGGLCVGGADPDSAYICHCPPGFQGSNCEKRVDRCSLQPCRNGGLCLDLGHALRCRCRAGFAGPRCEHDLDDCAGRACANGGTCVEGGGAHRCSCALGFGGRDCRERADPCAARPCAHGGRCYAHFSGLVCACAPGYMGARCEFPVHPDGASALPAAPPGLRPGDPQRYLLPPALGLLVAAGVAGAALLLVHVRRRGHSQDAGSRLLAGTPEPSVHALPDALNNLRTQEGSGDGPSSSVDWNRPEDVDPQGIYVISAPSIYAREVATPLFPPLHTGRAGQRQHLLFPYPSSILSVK


Legend:
[1] = molecular target: T1, human DLL3 on DLL3 expressing cancer …; assay: cell-based or functional assay
[2] = molecular target: T1, human DLL3 on DLL3 expressing cancer …; assay: cell-based or functional assay; remark: listed apart in the source

Binder | TDCC EC50, CHO expressed purified protein [1] [nM] | fold increase in TDCC potency compared to the parental DLL3 binder DH6 [2] [fold]
anti-DLL3 trispecific protein 1A011 (other, not shown: small tags and cut ends) EVQLVESGGGLVQPGGSLTLSCVASGSTSSINAIGWYRRAPGKQRELVAGISSDGSKVYIDSVKGRFTISRDNAKNSVYLQMNSLRAEDTAVYYCYYFRTVSGSSYRYWGQGTLVTVSS | 0.17 | 
anti-DLL3 trispecific protein 1H012 (other, not shown: small tags and cut ends) EVQLVESGGGLVQPGGSLTLSCVASGSTSSINAMGWYRRAPGKQRELVAGISSDGSKVYVDSVKGRFTISRDNAKNSVYLQMNSLRAEDTAVYYCYYFRTVSGSSMPYWGQGTLVTVSS | 0.063 | 
anti-DLL3 trispecific protein 2H02 (other, not shown: small tags and cut ends) EVQLVESGGGLVQPGGSLTLSCVASGSTSSINAMAWYRRAPGKQRELAAGISSDGSKVYADSVKGRFTISRDNAKNSVYLQMNSLRAEDTAVYYCYYFHTVSGSSMRYWGQGTLVTVSS | 0.096 | 
anti-DLL3 trispecific protein 2E05 (other, not shown: small tags and cut ends) EVQLVESGGGLVQPGGSLTLSCVASGSPSSINAYGWYRRAPGKQRELVAGISSDGSKVYSDSVKGRFTISRDNAKNSVYLQMNSLRAEDTAVYYCYYFRTVSGSSMSYWGQGTLVTVSS | 0.072 | 
anti-DLL3 trispecific protein 2C04 (other, not shown: small tags and cut ends) EVQLVESGGGLVQPGGSLTLSCVASGSTSSRNAMGWYRRAPGKQRELVAGISSDGSKLYADSVKGRFTISRDNAKNSVYLQMNSLRAEDTAVYYCYYFRTVLGSSMRYWGQGTLVTVSS | 0.043 | 
anti-DLL3 trispecific protein 2E02 (other, not shown: small tags and cut ends) EVQLVESGGGLVQPGGSLTLSCVASGSTSAINAMGWYRRAPGKQRELVAGISSDGSKVYVDSVKGRFTISRDNAKNSVYLQMNSLRAEDTAVYYCYYFRTVSGSSQRYWGQGTLVTVSS | 0.12 | 
anti-DLL3 trispecific protein 4D09 (other, not shown: small tags and cut ends) EVQLVESGGGLVQPGGSLTLSCAASGSSVKFLSMAWYRQAPGKKRELVAGISADGSTDYILSVKGRFTISRDNAKNSVYLQMNSLRAEDTAVYYCYAYEWTTRYTYWGQGTLVTVSS | 0.06 | 
anti-DLL3 trispecific protein 4D011 (other, not shown: small tags and cut ends) EVQLVESGGGLVQPGGSLTLSCAASGSSVRFLSMAWYRQAPGKKRELVAGISVDGSTDYIDSVKGRFTISRDNAKNSVYLQMNSLRAEDTAVYYCYAYRWRTRYTYWGQGTLVTVSS | 0.098 | 
anti-DLL3 trispecific protein 4H011 (other, not shown: small tags and cut ends) EVQLVESGGGLVQPGGSLTLSCAASGSSVSRLSMAWYRQAPGKKRELVAGISVDGSTDYIDSVKGRFTISRDNAKNSVYLQMNSLRAEDTAVYYCYAYRWTTRLTYWGQGTLVTVSS |  | > 8
